In publication PMC11063955, “A multiplexed time-resolved fluorescence resonance energy transfer ultrahigh-throughput screening assay for targeting the SMAD4–SMAD3–DNA complex” (Journal of Molecular Cell Biology, 2023) one finds decrease of the PPI signal with 5'-FAM-SBE4 Mut dsDNA against WT dsDNA and reduction of the PPI signal against SMAD4 WT data, which are given here for 1 molecule.

Common to all, as to conditions: remark: other sources report otherwise
Test [1] has as its target T1, His-tagged SMAD4 WT (Mothers against decapentaplegic homolog 4), Q13485.
T1 chain: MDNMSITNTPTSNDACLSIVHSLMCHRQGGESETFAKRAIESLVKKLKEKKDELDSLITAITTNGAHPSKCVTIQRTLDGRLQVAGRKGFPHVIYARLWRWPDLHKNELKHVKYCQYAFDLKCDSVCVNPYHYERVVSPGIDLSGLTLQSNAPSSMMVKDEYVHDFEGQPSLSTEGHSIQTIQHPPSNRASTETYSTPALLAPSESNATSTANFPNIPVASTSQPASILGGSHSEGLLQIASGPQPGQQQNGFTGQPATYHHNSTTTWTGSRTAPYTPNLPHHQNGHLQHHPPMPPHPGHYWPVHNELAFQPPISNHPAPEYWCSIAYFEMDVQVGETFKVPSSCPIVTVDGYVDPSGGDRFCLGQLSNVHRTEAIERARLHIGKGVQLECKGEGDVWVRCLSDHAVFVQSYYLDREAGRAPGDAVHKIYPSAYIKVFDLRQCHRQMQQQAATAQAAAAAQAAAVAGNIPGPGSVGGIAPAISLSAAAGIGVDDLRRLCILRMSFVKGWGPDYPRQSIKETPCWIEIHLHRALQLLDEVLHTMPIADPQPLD
Nature of the test: AlphaScreen or HTRF; multiplexed TR-FRET, PPI read-out (Tb-D2), lysate of HEK293T cells co-expressing His-SMAD4 and Flag-SMAD3 with point-mutated 5'-FAM-SBE4 Mut dsDNA in place of the WT dsDNA.

Test [2] has as its target T2, His-tagged SMAD4 R361C, Q13485.
T2 chain: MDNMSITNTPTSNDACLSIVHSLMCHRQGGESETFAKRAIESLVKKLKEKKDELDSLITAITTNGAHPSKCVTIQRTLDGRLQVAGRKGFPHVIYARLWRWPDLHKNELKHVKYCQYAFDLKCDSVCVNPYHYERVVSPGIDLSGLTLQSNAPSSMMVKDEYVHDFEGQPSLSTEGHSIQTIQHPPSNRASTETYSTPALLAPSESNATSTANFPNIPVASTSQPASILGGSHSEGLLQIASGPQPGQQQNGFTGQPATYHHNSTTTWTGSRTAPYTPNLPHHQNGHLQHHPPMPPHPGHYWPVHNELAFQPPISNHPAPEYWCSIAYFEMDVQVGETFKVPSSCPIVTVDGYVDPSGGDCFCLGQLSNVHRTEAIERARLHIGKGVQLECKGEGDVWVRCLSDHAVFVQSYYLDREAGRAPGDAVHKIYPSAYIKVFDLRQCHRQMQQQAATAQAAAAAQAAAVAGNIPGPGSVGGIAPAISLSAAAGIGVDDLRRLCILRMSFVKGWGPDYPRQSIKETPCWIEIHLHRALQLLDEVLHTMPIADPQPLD
Nature of the test: AlphaScreen or HTRF; multiplexed TR-FRET, PPI read-out (Tb-D2), lysate of HEK293T cells co-expressing His-SMAD4 and Flag-SMAD3 (WT or mutated) with 5'-FAM-SBE4 WT dsDNA; anti-FLAG M2-Tb cryptate and anti-6xHis-D2 antibodies; FRET buffer 20 mM Tris-HCl pH 7.0, 50 mM NaCl, 0.01% NP-40; 4°C for 30 min.

The target in test [3] is T3, His-tagged SMAD4 R361H, Q13485.
T3 chain: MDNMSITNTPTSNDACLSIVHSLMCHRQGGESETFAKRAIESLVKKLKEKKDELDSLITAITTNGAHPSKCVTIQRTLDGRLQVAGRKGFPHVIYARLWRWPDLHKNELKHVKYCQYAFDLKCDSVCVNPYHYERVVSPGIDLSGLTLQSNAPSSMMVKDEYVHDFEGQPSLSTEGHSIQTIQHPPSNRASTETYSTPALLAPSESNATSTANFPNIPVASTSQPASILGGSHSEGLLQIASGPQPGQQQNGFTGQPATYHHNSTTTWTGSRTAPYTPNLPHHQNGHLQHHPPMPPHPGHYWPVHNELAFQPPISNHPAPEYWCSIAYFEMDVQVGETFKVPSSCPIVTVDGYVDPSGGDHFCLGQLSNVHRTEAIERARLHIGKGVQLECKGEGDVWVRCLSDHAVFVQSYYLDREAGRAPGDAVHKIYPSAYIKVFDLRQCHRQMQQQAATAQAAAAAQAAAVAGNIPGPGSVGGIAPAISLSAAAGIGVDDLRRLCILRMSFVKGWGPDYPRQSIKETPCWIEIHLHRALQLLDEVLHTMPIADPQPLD
The description is as above.

B1: Flag-tagged SMAD3 WT, P84022 1-425 (natural protein)
chain: MSSILPFTPPIVKRLLGWKKGEQNGQEEKWCEKAVKSLVKKLKKTGQLDELEKAITTQNVNTKCITIPRSLDGRLQVSHRKGLPHVIYCRLWRWPDLHSHHELRAMELCEFAFNMKKDEVCVNPYHYQRVETPVLPPVLVPRHTEIPAEFPPLDDYSHSIPENTNFPAGIEPQSNIPETPPPGYLSEDGETSDHQMNHSMDAGSPNLSPNPMSPAHNNLDLQPVTYCEPAFWCSISYYELNQRVGETFHASQPSMTVDGFTDPSNSERFCLGLLSNVNRNAAVELTRRHIGRGVRLYYIGGEVFAECLSDSAIFVQSPNCNQRYGWHPATVCKIPPGCNLKIFNNQEFAALLAQSVNQGFEAVYQLTRMCTIRMSFVKGWGAEYRRQTVTSTPCWIELHLNGPLQWLDKVLTQMGSPSIRCSSVS
As for B1, the decrease of the PPI signal with 5'-FAM-SBE4 Mut dsDNA against WT dsDNA in test [1] worked out at 15%. In addition, the reduction of the PPI signal against SMAD4 WT in test [2] and in test [3] was 75% each time.
